The target of the test is human FGFR1c (FGF receptor 1c isoform) together with human beta-Klotho (KLB) (human) (UniProt P11362). Kind of test: cell-based or functional assay.

Drawing on patent publication US20240325499A1, “FGF21 COMPOUND / GLP-1R AGONIST COMBINATIONS WITH OPTIMIZED ACTIVITY RATIO” (SANOFI, priority 2018, published 2024), this text covers pERK ICW EC50 (nmol/L) and pFGFR ICW EC50 (nmol/L) for 1 substance.

Sequence of mature human wild-type FGF21, FGF21(His29-Ser209) (Q9NSA1 29-209 L174P): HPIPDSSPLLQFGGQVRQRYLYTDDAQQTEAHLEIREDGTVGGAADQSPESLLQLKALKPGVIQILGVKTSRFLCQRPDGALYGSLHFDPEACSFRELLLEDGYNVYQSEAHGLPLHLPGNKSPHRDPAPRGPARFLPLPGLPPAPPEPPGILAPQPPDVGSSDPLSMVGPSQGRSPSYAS

In the case of “mature human wild-type FGF21, FGF21(His29-Ser209) (from UniProt Q9NSA1 29-209) (ligand)”, the pERK ICW EC50 (nmol/L) amounted to 0.18 nmol/L and the pFGFR ICW EC50 (nmol/L) amounted to 4.8 nmol/L.
